Measurements reported in publication PMC4519180 (2015).
No end group written: not given here. *: point of attachment. 6FAM = O=C1OC2(c3ccc(O)cc3Oc3cc(O)ccc32)c2cc(C(=O)*)ccc21

biological target: recombinant purified ABL SH3 domain alone (human)
Sequence (chain, as listed by the source): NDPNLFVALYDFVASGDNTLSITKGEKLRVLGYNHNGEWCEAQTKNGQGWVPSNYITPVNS

Kd [nM]	Binder
400	6FAM-APTYPPPLPP [p40 probe peptide, labeled with 6-carboxyfluorescein]
34000	6FAM-APTMPPPLPP [3BP-1 probe peptide, labeled with 6-carboxyfluorescein]
1500	APSYSPPPPP [unlabeled p41 peptide]
